Measured values from patent US20230049732A1 (UNIVERSITY OF LOUISVILLE RESEARCH FOUNDATION, published 2023).

T1: N399N400F401TDT404-VLPs of parvovirus B19 (parvovirus B19 genotype 1 (mutated), UniProt P07299 228-781)
T1 construct: also called NNF401TDT-B19V; NNF401TDT
T1 chain: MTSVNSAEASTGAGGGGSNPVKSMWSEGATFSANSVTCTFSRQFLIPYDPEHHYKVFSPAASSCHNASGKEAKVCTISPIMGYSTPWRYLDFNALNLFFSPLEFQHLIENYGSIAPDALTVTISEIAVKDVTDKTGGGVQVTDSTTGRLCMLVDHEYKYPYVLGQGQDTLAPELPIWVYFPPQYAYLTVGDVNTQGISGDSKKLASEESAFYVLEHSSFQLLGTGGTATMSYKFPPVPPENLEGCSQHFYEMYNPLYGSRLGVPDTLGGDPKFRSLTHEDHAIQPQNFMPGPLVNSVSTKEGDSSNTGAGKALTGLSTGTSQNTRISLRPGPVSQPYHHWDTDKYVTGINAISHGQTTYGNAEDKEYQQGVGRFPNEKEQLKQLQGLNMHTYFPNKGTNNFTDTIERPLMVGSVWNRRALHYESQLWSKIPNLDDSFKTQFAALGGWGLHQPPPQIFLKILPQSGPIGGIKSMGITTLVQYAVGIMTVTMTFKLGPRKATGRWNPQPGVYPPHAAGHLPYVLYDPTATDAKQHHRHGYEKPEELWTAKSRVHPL

T2: wtVLPs of parvovirus B19 genotype 1 (VP2 only) (parvovirus B19 genotype 1, UniProt P07299 228-781)
T2 construct: Intact virus-like particles self-assembled from VP2 alone, made in Sf9 cells with baculovirus; also called B19V genotype 1; Prototype Q399QYTDQ404
T2 sequence: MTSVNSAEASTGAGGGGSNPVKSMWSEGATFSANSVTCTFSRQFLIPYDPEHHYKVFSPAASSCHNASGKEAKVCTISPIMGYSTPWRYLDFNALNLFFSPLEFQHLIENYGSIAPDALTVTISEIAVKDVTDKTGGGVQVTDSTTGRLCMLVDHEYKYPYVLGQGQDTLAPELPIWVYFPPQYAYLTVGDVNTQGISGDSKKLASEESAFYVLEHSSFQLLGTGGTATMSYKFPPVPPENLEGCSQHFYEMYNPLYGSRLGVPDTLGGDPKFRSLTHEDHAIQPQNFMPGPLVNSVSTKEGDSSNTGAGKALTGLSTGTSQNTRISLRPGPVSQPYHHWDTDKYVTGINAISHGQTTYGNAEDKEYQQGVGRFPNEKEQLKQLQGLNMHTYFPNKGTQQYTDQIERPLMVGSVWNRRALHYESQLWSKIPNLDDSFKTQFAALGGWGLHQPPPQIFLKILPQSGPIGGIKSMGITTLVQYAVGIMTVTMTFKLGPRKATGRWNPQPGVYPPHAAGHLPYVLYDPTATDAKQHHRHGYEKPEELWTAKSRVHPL

T3: VLPs of B19V genotype 2 (Lali strain VP2) (parvovirus B19 genotype 2, UniProt P07299 228-781)
T3 construct: Intact VLPs of non-mutated VP2
T3 chain: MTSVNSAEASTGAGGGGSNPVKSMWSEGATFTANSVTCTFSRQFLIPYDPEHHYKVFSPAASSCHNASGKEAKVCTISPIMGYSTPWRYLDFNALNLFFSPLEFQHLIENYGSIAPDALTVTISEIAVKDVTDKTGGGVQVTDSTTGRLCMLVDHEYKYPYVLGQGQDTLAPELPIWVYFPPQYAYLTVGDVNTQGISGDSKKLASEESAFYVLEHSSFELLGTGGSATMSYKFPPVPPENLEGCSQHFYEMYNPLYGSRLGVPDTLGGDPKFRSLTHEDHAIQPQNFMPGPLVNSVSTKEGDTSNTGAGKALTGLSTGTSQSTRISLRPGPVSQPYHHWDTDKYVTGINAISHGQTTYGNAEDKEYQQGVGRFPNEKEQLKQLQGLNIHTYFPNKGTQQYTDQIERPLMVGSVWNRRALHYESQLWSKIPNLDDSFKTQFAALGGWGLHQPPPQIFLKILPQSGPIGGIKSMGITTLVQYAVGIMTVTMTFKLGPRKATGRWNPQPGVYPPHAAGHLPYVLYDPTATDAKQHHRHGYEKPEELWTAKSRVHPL

T4: VLPs of B19V genotype 3 (V9 strain VP2) (parvovirus B19 genotype 3, UniProt P07299 228-781)
T4 construct: Intact VLPs of non-mutated VP2
T4 chain: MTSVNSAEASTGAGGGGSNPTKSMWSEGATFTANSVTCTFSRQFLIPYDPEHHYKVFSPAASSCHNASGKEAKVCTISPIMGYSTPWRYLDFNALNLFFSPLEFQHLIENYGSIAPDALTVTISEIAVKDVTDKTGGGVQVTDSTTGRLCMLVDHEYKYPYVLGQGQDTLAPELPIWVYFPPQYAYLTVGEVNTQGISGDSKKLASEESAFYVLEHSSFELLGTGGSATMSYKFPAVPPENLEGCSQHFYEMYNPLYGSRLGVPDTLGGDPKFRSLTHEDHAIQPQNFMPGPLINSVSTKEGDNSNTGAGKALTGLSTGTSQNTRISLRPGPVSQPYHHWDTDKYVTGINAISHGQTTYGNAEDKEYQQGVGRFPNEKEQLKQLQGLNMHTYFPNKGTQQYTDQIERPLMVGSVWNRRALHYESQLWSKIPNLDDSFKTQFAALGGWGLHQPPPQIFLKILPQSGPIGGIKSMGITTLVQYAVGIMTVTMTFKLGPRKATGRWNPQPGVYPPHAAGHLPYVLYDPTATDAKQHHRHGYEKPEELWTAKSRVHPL


How the values were obtained:
[1] = biological target: T1, N399N400F401TDT404-VLPs of parvovirus …; assay: ELISA, intact VLPs coated, hybridoma supernatant
[2] = biological target: T2, wtVLPs of parvovirus B19 genotype 1 …; assay: ELISA, intact VLPs coated, hybridoma supernatant
[3] = biological target: T3, VLPs of B19V genotype 2 (Lali strain …); assay: ELISA, VLPs coated
Experimental: (§1) First, 96-well ELISA plates (Immunolon 2; Dynatech) were coated, either 1 h at 37° C. or overnight at 4° C., with 250 to 500 ng per well of B19V VLPs. Intact VLPs were re-suspended in PBS, and the disrupted VLPs were re-suspended in the following solution: 0.2 M NaCO₃, 0.01 M dithiothreitol, pH 7.0, to detect sequential epitopes. The plates were washed three times with PBS, then saturated with bovine albumin via PBS containing 5% bovine serum albumin (5% PBSA) for 1 h at 37° C. After washing three times, plates were then incubated with primary antibodies. Primary antibodies used were rabbit sera (at 1/1000), mouse sera (1/100 dilution) to B19V VLPs, or supernatant of hybridoma cells without dilution for 1 h at 37° C. Thereafter, plates were washed thrice with PBS, then incubated with alkaline phosphatase-conjugated secondary antibodies, with either goat anti-mouse or anti-rabbit IgG (H+L) (Sigma, USA) at a dilution of 1:5000 for 1 h at 37° C. After washing with PBS, bound antibodies were detected with an alkaline phosphatase chromogenic substrate (Phosphatase substrate, Sigma, USA), and absorption was measured at 405 nm. One percent PBSA and sera collected from pre-immune animals were used as negative controls. Human papillomavirus (HPV) and mouse parvovirus (MPV) VLPs were used to check the cross-reactivity of primary antibodies with other types of VLPs. All antibodies were diluted in 1% PBSA.

[4] = biological target: T2, wtVLPs of parvovirus B19 genotype 1 …; assay: ELISA, VLPs coated
Experimental: as §1

[5] = biological target: T4, VLPs of B19V genotype 3 (V9 strain VP2); assay: ELISA, VLPs coated
Experimental: as §1

Row | Binder | ELISA absorbance (405 nm) [1] | ELISA absorbance (405 nm) [2] | ELISA absorbance (405 nm) [3] | ELISA absorbance (405 nm) [4] | ELISA absorbance (405 nm) [5]
1 | MAb #25 (antibody, V domains shown, Murine hybridoma antibody, supernatant; also called antibody 25) VH: QVQLQQPGAELVRPGASVKLSCKASGYTFTNYWMHWVKQRPEQGLEWIGRIDPYDSETHYNQKFKDKAILTVDTSSNTAYMQLSSLTSEDSAVYYCTSYYYGSNYVWHFDVWGAGTTVTVSS VL: not shown | 3.26 | 2.86 | 2.54 | 2.67 | 2.65
2 | MAb #91 (antibody, V domains shown, Murine hybridoma antibody, supernatant; also called antibody 91) VH: EVQLQQSGPELVKPGASVKISCKASGYSFTDYFMNWVKQSHGKSLEWIGRINPYNGDSFYNQNFRGSVTLTVDKSSGTAHMELLSLTSEDSTVYYCGAYRYDGYAMDYWGQGTSVTVSS VL: DVVMTQTPLSLPVSLGDQASISCRSSQSLVHSDGNTYLHWYLQKPGQSPKLLIYKVSNRFSGVPDRFSGSGSGTDFTLKISRVEAEDLGVYFCSQSTHVPFTFGSGTKLEIK | 3.86 | 3.72 | 3.09 | 3.43 | 3.05
